Patent US20240270846A1 (published 2024)
Positions count from the first letter of the chain named.

Biological target: T1, CD3 epsilon homodimer protein (UniProt P07766 23-126)
T1 construct: also called CD3 (CD3 epsilon)
Experiment: SPR Biacore T200, CD3 epsilon homodimer on chip, antibody as analyte;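 note: homodimer amine-coupled to a CM4 sensor chip, run at 25 °C in HBS-EP+ buffer, with kinetic parameters derived in Biacore T200 Evaluation Software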

T1 sequence (P07766 23-126): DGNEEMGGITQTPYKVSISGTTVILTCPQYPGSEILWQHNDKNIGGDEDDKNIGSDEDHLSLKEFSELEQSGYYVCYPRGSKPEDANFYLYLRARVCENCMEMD

B1: CE115HA000 H chain altered form E61D (antibody, human IgG1, kappa, L234A L235A, N297A, name in Kabat numbering)
heavy: QVQLVESGGGVVQPGRSLRLSCAASGFTFSNAWMHWVRQAPGKGLEWVAQIKAKSNNYATYYADSVKGRFTISRDDSKNSLYLQMNSLKTEDTAVYYCRYVHYGAYYGVDAWGQGTTVTVSSASTKGPSVFPLAPSSKSTSGGTAALGCLVKDYFPEPVTVSWNSGALTSGVHTFPAVLQSSGLYSLSSVVTVPSSSLGTQTYICNVNHKPSNTKVDKKVEPKSCDKTHTCPPCPAPEAAGGPSVFLFPPKPKDTLMISRTPEVTCVVVDVSHEDPEVKFNWYVDGVEVHNAKTKPREEQYASTYRVVSVLTVLHQDWLNGKEYKCKVSNKALPAPIEKTISKAKGQPREPQVYTLPPSRCELTKNQVSLSCAVKGFYPSDIAVEWESNGQPENNYKTTPPVLDSDGSFFLVSKLTVDKSRWQQGNVFSCSVMHEALHNHYTQKSLSLSPDYKDDDDK
chain: EPKSSDKTHTCPPCPAPELLGGPSVFLFPPKPKDTLMISRTPEVTCVVVDVSHEDPEVKFNWYVDGVEVHNAKTKPREEQYNSTYRVVSVLTVLHQDWLNGKEYKCKVSNKALPAPIEKTISKAKGQPREPQVCTLPPSRDELTKNQVSLWCLVKGFYPSDIAVEWESNGQPENNYKTTPPVLDSDGSFFLYSKLTVDKSRWQQGNVFSCSVMHEALHNRYTQKSLSLSP
light: DIVMTQSPLSLPVTPGEPASISCRSSQSLVHSNRNTYLHWYQQKPGQAPRLLIYKVSNRFSGVPDRFSGSGSGTDFTLKISRVEAEDVGVYYCGQGTQVPYTFGQGTKLEIKRTVAAPSVFIFPPSDEQLKSGTASVVCLLNNFYPREAKVQWKVDNALQSGNSQESVTEQDSKDSTYSLSSTLTLSKADYEKHKVYACEVTHQGLSSPVTKSFNRGEC
notes: one-arm antibody
KD ratio (KD of CE115HA000 / KD of altered form): 0.9

B2: CE115HA000 H chain altered form I51D (antibody, human IgG1, kappa, L234A L235A, N297A, name in Kabat numbering)
heavy: B1 heavy with I51D, D64E
chain: B1 chain
light: B1 light
notes: one-arm antibody
KD ratio (KD of CE115HA000 / KD of altered form): 6.37

B3: CE115HA000 H chain altered form H35I (antibody, human IgG1, kappa, L234A L235A, N297A, name in Kabat numbering)
heavy: B1 heavy with H35I, D64E
chain: B1 chain
light: B1 light
notes: one-arm antibody
KD ratio (KD of CE115HA000 / KD of altered form): 7.23

B4: CE115HA000 H chain altered form K52S (antibody, human IgG1, kappa, L234A L235A, N297A, name in Kabat numbering)
heavy: B1 heavy with K52S, D64E
chain: B1 chain
light: B1 light
notes: one-arm antibody
KD ratio (KD of CE115HA000 / KD of altered form): 92.1

B5: CE115HA000 H chain altered form H35W (antibody, human IgG1, kappa, L234A L235A, N297A, name in Kabat numbering)
heavy: B1 heavy with H35W, D64E
chain: B1 chain
light: B1 light
notes: one-arm antibody
KD ratio (KD of CE115HA000 / KD of altered form): 50.4

B6: CE115HA000 H chain altered form H35M (antibody, human IgG1, kappa, L234A L235A, N297A, name in Kabat numbering)
heavy: B1 heavy with H35M, D64E
chain: B1 chain
light: B1 light
notes: one-arm antibody
KD ratio (KD of CE115HA000 / KD of altered form): 3.98

B7: CE115HA000 H chain altered form H35N (antibody, human IgG1, kappa, L234A L235A, N297A, name in Kabat numbering)
heavy: B1 heavy with H35N, D64E
chain: B1 chain
light: B1 light
notes: one-arm antibody
KD ratio (KD of CE115HA000 / KD of altered form): 2.88

B8: CE115HA000 H chain altered form K43E (antibody, human IgG1, kappa, L234A L235A, N297A, name in Kabat numbering)
heavy: B1 heavy with K43E, D64E
chain: B1 chain
light: B1 light
notes: one-arm antibody
KD ratio (KD of CE115HA000 / KD of altered form): 0.88

B9: CE115HA000 H chain altered form H35R (antibody, human IgG1, kappa, L234A L235A, N297A, name in Kabat numbering)
heavy: B1 heavy with H35R, D64E
chain: B1 chain
light: B1 light
notes: one-arm antibody
KD ratio (KD of CE115HA000 / KD of altered form): 15400

B10: CE115HA000 H chain altered form H35D (antibody, human IgG1, kappa, L234A L235A, N297A, name in Kabat numbering)
heavy: B1 heavy with H35D, D64E
chain: B1 chain
light: B1 light
notes: one-arm antibody
KD ratio (KD of CE115HA000 / KD of altered form): 69

B11: CE115HA000 H chain altered form H35S (antibody, human IgG1, kappa, L234A L235A, N297A, name in Kabat numbering)
heavy: B1 heavy with H35S, D64E
chain: B1 chain
light: B1 light
notes: one-arm antibody
KD ratio (KD of CE115HA000 / KD of altered form): 2.93

B12: CE115HA000 H chain altered form E61Q (antibody, human IgG1, kappa, L234A L235A, N297A, name in Kabat numbering)
heavy: B1 heavy with D64Q
chain: B1 chain
light: B1 light
notes: one-arm antibody
KD ratio (KD of CE115HA000 / KD of altered form): 0.85

B13: CE115HA000 H chain altered form K52N (antibody, human IgG1, kappa, L234A L235A, N297A, name in Kabat numbering)
heavy: B1 heavy with K52N, D64E
chain: B1 chain
light: B1 light
notes: one-arm antibody
KD ratio (KD of CE115HA000 / KD of altered form): 3.29

B14: CE115HA000 H chain altered form H35Q (antibody, human IgG1, kappa, L234A L235A, N297A, name in Kabat numbering)
heavy: B1 heavy with H35Q, D64E
chain: B1 chain
light: B1 light
notes: one-arm antibody
KD ratio (KD of CE115HA000 / KD of altered form): 4.8

B15: CE115HA000 H chain altered form I51E (antibody, human IgG1, kappa, L234A L235A, N297A, name in Kabat numbering)
heavy: B1 heavy with I51E, D64E
chain: B1 chain
light: B1 light
notes: one-arm antibody
KD ratio (KD of CE115HA000 / KD of altered form): 0.84

B16: CE115HA000 H chain altered form H35G (antibody, human IgG1, kappa, L234A L235A, N297A, name in Kabat numbering)
heavy: B1 heavy with H35G, D64E
chain: B1 chain
light: B1 light
notes: one-arm antibody
KD ratio (KD of CE115HA000 / KD of altered form): 45.8

B17: CE115HA000 H chain altered form K52F (antibody, human IgG1, kappa, L234A L235A, N297A, name in Kabat numbering)
heavy: B1 heavy with K52F, D64E
chain: B1 chain
light: B1 light
notes: one-arm antibody
KD ratio (KD of CE115HA000 / KD of altered form): 4.04

B18: CE115HA000 H chain altered form K52H (antibody, human IgG1, kappa, L234A L235A, N297A, name in Kabat numbering)
heavy: B1 heavy with K52H, D64E
chain: B1 chain
light: B1 light
notes: one-arm antibody
KD ratio (KD of CE115HA000 / KD of altered form): 2.65

B19: CE115HA000 H chain altered form H35L (antibody, human IgG1, kappa, L234A L235A, N297A, name in Kabat numbering)
heavy: B1 heavy with H35L, D64E
chain: B1 chain
light: B1 light
notes: one-arm antibody
KD ratio (KD of CE115HA000 / KD of altered form): 4.8

B20: CE115HA000 H chain altered form K52R (antibody, human IgG1, kappa, L234A L235A, N297A, name in Kabat numbering)
heavy: B1 heavy with K52R, D64E
chain: B1 chain
light: B1 light
notes: one-arm antibody
KD ratio (KD of CE115HA000 / KD of altered form): 0.8

B21: CE115HA000 H chain altered form E61P (antibody, human IgG1, kappa, L234A L235A, N297A, name in Kabat numbering)
heavy: B1 heavy with D64P
chain: B1 chain
light: B1 light
notes: one-arm antibody
KD ratio (KD of CE115HA000 / KD of altered form): 0.82

B22: CE115HA000 H chain altered form K43Q (antibody, human IgG1, kappa, L234A L235A, N297A, name in Kabat numbering)
heavy: B1 heavy with K43Q, D64E
chain: B1 chain
light: B1 light
notes: one-arm antibody
KD ratio (KD of CE115HA000 / KD of altered form): 0.89

B23: CE115HA000 H chain altered form K52E (antibody, human IgG1, kappa, L234A L235A, N297A, name in Kabat numbering)
heavy: B1 heavy with K52E, D64E
chain: B1 chain
light: B1 light
notes: one-arm antibody
KD ratio (KD of CE115HA000 / KD of altered form): 19.4

B24: CE115HA000 H chain altered form H35E (antibody, human IgG1, kappa, L234A L235A, N297A, name in Kabat numbering)
heavy: B1 heavy with H35E, D64E
chain: B1 chain
light: B1 light
notes: one-arm antibody
KD ratio (KD of CE115HA000 / KD of altered form): 70.3

B25: CE115HA000 H chain altered form H35K (antibody, human IgG1, kappa, L234A L235A, N297A, name in Kabat numbering)
heavy: B1 heavy with H35K, D64E
chain: B1 chain
light: B1 light
notes: one-arm antibody
KD ratio (KD of CE115HA000 / KD of altered form): 14.4

B26: CE115HA000 H chain altered form H35Y (antibody, human IgG1, kappa, L234A L235A, N297A, name in Kabat numbering)
heavy: B1 heavy with H35Y, D64E
chain: B1 chain
light: B1 light
notes: one-arm antibody
KD ratio (KD of CE115HA000 / KD of altered form): 119000

B27: CE115HA000 H chain altered form H35V (antibody, human IgG1, kappa, L234A L235A, N297A, name in Kabat numbering)
heavy: B1 heavy with H35V, D64E
chain: B1 chain
light: B1 light
notes: one-arm antibody
KD ratio (KD of CE115HA000 / KD of altered form): 28.1

B28: CE115HA000 H chain altered form K52I (antibody, human IgG1, kappa, L234A L235A, N297A, name in Kabat numbering)
heavy: B1 heavy with K52I, D64E
chain: B1 chain
light: B1 light
notes: one-arm antibody
KD ratio (KD of CE115HA000 / KD of altered form): 3.54

B29: CE115HA000 H chain altered form F29V (antibody, human IgG1, kappa, L234A L235A, N297A, name in Kabat numbering)
heavy: B1 heavy with F29V, D64E
chain: B1 chain
light: B1 light
notes: one-arm antibody
KD ratio (KD of CE115HA000 / KD of altered form): 2.94

B30: CE115HA000 H chain altered form H35T (antibody, human IgG1, kappa, L234A L235A, N297A, name in Kabat numbering)
heavy: B1 heavy with H35T, D64E
chain: B1 chain
light: B1 light
notes: one-arm antibody
KD ratio (KD of CE115HA000 / KD of altered form): 4.4

B31: CE115HA000 H chain altered form H35F (antibody, human IgG1, kappa, L234A L235A, N297A, name in Kabat numbering)
heavy: B1 heavy with H35F, D64E
chain: B1 chain
light: B1 light
notes: one-arm antibody
KD ratio (KD of CE115HA000 / KD of altered form): 53.6

B32: CE115HA000 H chain altered form K52D (antibody, human IgG1, kappa, L234A L235A, N297A, name in Kabat numbering)
heavy: B1 heavy with K52D, D64E
chain: B1 chain
light: B1 light
notes: one-arm antibody
KD ratio (KD of CE115HA000 / KD of altered form): 166
